Test results published in patent publication US8765721B2, “Composition comprising phosphatidyl serine and an antigen or allergen and the use thereof” (Vaccine Technology Limited, priority 2004, dated 2014).

Tests used:
Assay type in all cases: in vivo, rat
Settings in all cases: no phosphatidyl serine, pooled group serum
IgG1 = assay: Ovalbumin-specific IgG1 ELISA of serum of immunised rats
Protocol: (§1) Rats were injected with vaccine compositions comprising the ovalbumin antigen with and without di-oleoyl phosphatidyl serine, lyso-oleoyl phosphatidyl serine or stearoyl(X1)-arachidonoyl(X2) phosphatidyl serine and the concentrations of IgE, IgA and IgG are compared.
(§2) The animals were acclimatised for a period of 5 days prior to dosing. During the acclimatisation period animals were observed twice daily during the working week and once on each day during the weekend to evaluate the health status of the animals. Rats were then allocated to the following dose groups using computer-generated random order numbers.
(§3) On day 0, 20 μg of ovalbumin (OA) in phosphate buffered saline (PBS) with alhydrogel (AHG) adjuvant in a final volume of 0.5 mL was administered.
(§4) On days 21 and 42, 20 μg of ovalbumin (OA) in phosphate buffered saline (PBS) with the relevant test compound in a final volume of 0.5 ml was administered.
(§5) In each case, 0.5 mL of inoculum was injected subcutaneously into the scruff of the neck. […]
(§6) Serum was prepared by centrifugation of the blood sample at 2,500 rpm for 10 minutes and frozen at −20° C. The samples were then analysed by ELISA to establish the concentration of IgE, IgA and IgG1, IgG2a and IgG2b.
The purpose of an ELISA is to determine whether a particular protein is present in a sample and then enables quantification of how much is present. By coating the bottom of wells with ovalbumin (OVA) it is possible to bind anti-OVA specific antibodies. […] Quantification of specific antibodies in the rat sera samples was performed using antibody titrations. The data was reported as endpoint titers. Endpoint titers are defined as the last serum dilution giving an optical density value equal to twice the background optical density for the ELISA plate (buffer).

IgE = assay: Ovalbumin-specific IgE ELISA of serum of immunised rats
Protocol: as §1, §2, §3, §4
(§7) In each case, 0.5 mL of inoculum was injected subcutaneously into the scruff of the neck.
(§8) […] A blood sample was also taken from each animal on Days 15, 22, 29, 36, 43, 50, 57 and 64.
as §6
(§9) The purpose of an ELISA is to determine whether a particular protein is present in a sample and then enables quantification of how much is present. By coating the bottom of wells with ovalbumin (OVA) it is possible to bind anti-OVA specific antibodies. To detect only anti-OVA IgA antibodies anti-rat IgA conjugated to HRP was used as a secondary antibody. Quantification of specific antibodies in the rat sera samples was performed using antibody titrations. The data was reported as endpoint titers. Endpoint titers are defined as the last serum dilution giving an optical density value equal to twice the background optical density for the ELISA plate (buffer).

IgG2a = assay: Ovalbumin-specific IgG2a ELISA of serum of immunised rats
Protocol: as §1, §2, §3, §4, §5, §6, §9

IgA = assay: Ovalbumin-specific IgA ELISA of serum of immunised rats
Protocol: as §1, §2, §3, §4, §7
On Day 0 a pre-inoculation blood sample was taken. A blood sample was also taken from each animal on Days 15, 22, 29, 36, 43, 50, 57 and 64.
as §6, §9

IgG2b = assay: Ovalbumin-specific IgG2b ELISA of serum of immunised rats
Protocol: as §1, §2, §3, §4, §7, §8, §6, §9

B1: ovalbumin (protein, UniProt P01012 2-386, looked up)
Ovalbumin: GSIGAASMEFCFDVFKELKVHHANENIFYCPIAIMSALAMVYLGAKDSTRTQINKVVRFDKLPGFGDSIEAQCGTSVNVHSSLRDILNQITKPNDVYSFSLASRLYAEERYPILPEYLQCVKELYRGGLEPINFQTAADQARELINSWVESQTNGIIRNVLQPSSVDSQTAMVLVNAIVFKGLWEKAFKDEDTQAMPFRVTEQESKPVQMMYQIGLFRVASMASEKMKILELPFASGTMSMLVLLPDEVSGLEQLESIINFEKLTEWTSSNVMEERKIKVYLPRMKMEEKYNLTSVLMAMGITDVFSSSANLSGISSAESLKISQAVHAAHAEINEAGREVVGSAEAGVDAASVSEEFRADHPFLFCIKHIATNAVLFFGRCVSP
notes: Group 2: ovalbumin antigen, 20 μg on days 21 and 42 without phosphatidyl serine, after Ova + Alh on day 0
IgG1; Day 1
  IgG1 endpoint titer: 0
IgG1; Day 15
  IgG1 endpoint titer: 320
IgG1; Day 22
  IgG1 endpoint titer: 2560
IgG1; Day 29
  IgG1 endpoint titer: 10240
IgG1; Day 36
  IgG1 endpoint titer: 20480
IgG1; Day 43
  IgG1 endpoint titer: 10240
IgG1; Day 50
  IgG1 endpoint titer: 10240
IgG1; Day 57
  IgG1 endpoint titer: 10240
IgG1; Day 64
  IgG1 endpoint titer: 20480
IgE; Day 1
  IgE endpoint titer: 0
IgE; Day 15
  IgE endpoint titer: 0
IgE; Day 22
  IgE endpoint titer: 0
IgE; Day 29
  IgE endpoint titer: 0
IgE; Day 36
  IgE endpoint titer: 20
IgE; Day 43
  IgE endpoint titer: 20
IgE; Day 50
  IgE endpoint titer: 640
IgE; Day 57
  IgE endpoint titer: 80
IgE; Day 64
  IgE endpoint titer: 40
IgG2a; Day 1
  IgG2a endpoint titer: 0
IgG2a; Day 15
  IgG2a endpoint titer: 640
IgG2a; Day 22
  IgG2a endpoint titer: 1280
IgG2a; Day 29
  IgG2a endpoint titer: 1280
IgG2a; Day 36
  IgG2a endpoint titer: 2560
IgG2a; Day 43
  IgG2a endpoint titer: 5120
IgG2a; Day 50
  IgG2a endpoint titer: 20480
IgG2a; Day 57
  IgG2a endpoint titer: 20480
IgG2a; Day 64
  IgG2a endpoint titer: 10240
IgA; Day 1
  IgA endpoint titer: 0
IgA; Day 15
  IgA endpoint titer: 0
IgA; Day 22
  IgA endpoint titer: 0
IgA; Day 29
  IgA endpoint titer: 80
IgA; Day 36
  IgA endpoint titer: 320
IgA; Day 43
  IgA endpoint titer: 320
IgA; Day 50
  IgA endpoint titer: 640
IgA; Day 57
  IgA endpoint titer: 1280
IgA; Day 64
  IgA endpoint titer: 640
IgG2b; Day 1
  IgG2b endpoint titer: 0
IgG2b; Day 15
  IgG2b endpoint titer: 1280
IgG2b; Day 22
  IgG2b endpoint titer: 640
IgG2b; Day 29
  IgG2b endpoint titer: 640
IgG2b; Day 36
  IgG2b endpoint titer: 640
IgG2b; Day 43
  IgG2b endpoint titer: 640
IgG2b; Day 50
  IgG2b endpoint titer: 640
IgG2b; Day 57
  IgG2b endpoint titer: 5120
IgG2b; Day 64
  IgG2b endpoint titer: 5120
